Assay results published in patent US20210032299A1 (Eli Lilly, published 2021).
Starred links: 1 amine or outer side, 2 acyl side, 3 side chain; linkers in the order of their positions; H or OH if unused. Non-standard residues stand in square brackets, D forms with d. Groups on a side chain read outwards from the residue. No end group written: not given here. *: point of attachment. C20 diacid = O=C(O)CCCCCCCCCCCCCCCCCCC(=O)*; C18 diacid = O=C(O)CCCCCCCCCCCCCCCCC(=O)*; αMePhe(2-F) = C[C@](N)(Cc1ccccc1F)C(=O)O; γGlu = O=C(O)[C@H](CCC(=O)[*:2])N[*:1]; αMeF = C[C@](N)(Cc1ccccc1)C(=O)O; 4Pal = N[C@@H](Cc1ccncc1)C(=O)O; αMeL = CC(C)C[C@](C)(N)C(=O)O; AEEA = NCCOCCOCC(=O)O; Aib = CC(C)(N)C(=O)O

T1: human glucose-dependent insulinotropic polypeptide (GIP) receptor (human, UniProt P48546 22-466)
T1 construct: whole, on cells; Assayed as crude membranes of stably transfected CHO cells; also called hGIPR; human GIP receptor
T1 sequence (looked up): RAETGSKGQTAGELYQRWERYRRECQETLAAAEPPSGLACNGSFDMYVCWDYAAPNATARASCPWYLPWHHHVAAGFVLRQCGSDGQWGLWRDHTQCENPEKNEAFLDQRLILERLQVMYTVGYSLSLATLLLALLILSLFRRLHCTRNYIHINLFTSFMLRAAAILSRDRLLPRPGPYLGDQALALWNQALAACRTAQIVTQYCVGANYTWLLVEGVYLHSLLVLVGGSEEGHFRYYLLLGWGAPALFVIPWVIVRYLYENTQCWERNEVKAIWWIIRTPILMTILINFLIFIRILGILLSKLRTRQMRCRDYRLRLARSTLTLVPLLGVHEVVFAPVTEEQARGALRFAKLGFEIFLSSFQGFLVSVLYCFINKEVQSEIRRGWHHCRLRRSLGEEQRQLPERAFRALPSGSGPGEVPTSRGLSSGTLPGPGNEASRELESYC

B1: Example 50 (peptide)
peptide: Y[Aib]EGT[αMeF]ISDYSI[αMeL]LDKK([AEEA-AEEA-γGlu-C20 diacid])HQ[Aib]DFVE[4Pal]LLAGGPSSGAPPPS-NH2
modifications: N-terminus assumed
SMILES: CC[C@H](C)[C@H](NC(=O)[C@H](CO)NC(=O)[C@H](Cc1ccc(O)cc1)NC(=O)[C@H](CC(=O)O)NC(=O)[C@H](CO)NC(=O)[C@@H](NC(=O)[C@](C)(Cc1ccccc1)NC(=O)[C@@H](NC(=O)CNC(=O)[C@H](CCC(=O)O)NC(=O)C(C)(C)NC(=O)[C@@H](N)Cc1ccc(O)cc1)[C@@H](C)O)[C@@H](C)CC)C(=O)N[C@@](C)(CC(C)C)C(=O)N[C@@H](CC(C)C)C(=O)N[C@@H](CC(=O)O)C(=O)N[C@@H](CCCCN)C(=O)N[C@@H](CCCCNC(=O)COCCOCCNC(=O)COCCOCCNC(=O)CC[C@H](NC(=O)CCCCCCCCCCCCCCCCCCC(=O)O)C(=O)O)C(=O)N[C@@H](Cc1c[nH]cn1)C(=O)N[C@@H](CCC(N)=O)C(=O)NC(C)(C)C(=O)N[C@@H](CC(=O)O)C(=O)N[C@@H](Cc1ccccc1)C(=O)N[C@H](C(=O)N[C@@H](CCC(=O)O)C(=O)N[C@@H](Cc1ccncc1)C(=O)N[C@@H](CC(C)C)C(=O)N[C@@H](CC(C)C)C(=O)N[C@@H](C)C(=O)NCC(=O)NCC(=O)N1CCC[C@H]1C(=O)N[C@@H](CO)C(=O)N[C@@H](CO)C(=O)NCC(=O)N[C@@H](C)C(=O)N1CCC[C@H]1C(=O)N1CCC[C@H]1C(=O)N1CCC[C@H]1C(=O)N[C@@H](CO)C(N)=O)C(C)C
B2: Example 30 (peptide)
peptide: Ac-[dY]AEGT[αMePhe(2-F)]ISDYSIALDKK([AEEA-AEEA-γGlu-C18 diacid])HQ[Aib]EFVNYLLAGGPSSGAPPPS-NH2
SMILES: CC[C@H](C)[C@H](NC(=O)[C@H](CO)NC(=O)[C@H](Cc1ccc(O)cc1)NC(=O)[C@H](CC(=O)O)NC(=O)[C@H](CO)NC(=O)[C@@H](NC(=O)[C@](C)(Cc1ccccc1F)NC(=O)[C@@H](NC(=O)CNC(=O)[C@H](CCC(=O)O)NC(=O)[C@H](C)NC(=O)[C@@H](Cc1ccc(O)cc1)NC(C)=O)[C@@H](C)O)[C@@H](C)CC)C(=O)N[C@@H](C)C(=O)N[C@@H](CC(C)C)C(=O)N[C@@H](CC(=O)O)C(=O)N[C@@H](CCCCN)C(=O)N[C@@H](CCCCNC(=O)COCCOCCNC(=O)COCCOCCNC(=O)CC[C@H](NC(=O)CCCCCCCCCCCCCCCCC(=O)O)C(=O)O)C(=O)N[C@@H](Cc1c[nH]cn1)C(=O)N[C@@H](CCC(N)=O)C(=O)NC(C)(C)C(=O)N[C@@H](CCC(=O)O)C(=O)N[C@@H](Cc1ccccc1)C(=O)N[C@H](C(=O)N[C@@H](CC(N)=O)C(=O)N[C@@H](Cc1ccc(O)cc1)C(=O)N[C@@H](CC(C)C)C(=O)N[C@@H](CC(C)C)C(=O)N[C@@H](C)C(=O)NCC(=O)NCC(=O)N1CCC[C@H]1C(=O)N[C@@H](CO)C(=O)N[C@@H](CO)C(=O)NCC(=O)N[C@@H](C)C(=O)N1CCC[C@H]1C(=O)N1CCC[C@H]1C(=O)N1CCC[C@H]1C(=O)N[C@@H](CO)C(N)=O)C(C)C
B3: Example 33 (peptide)
peptide: Ac-[dY]AEGT[αMePhe(2-F)]ISDYSIALDKK([AEEA-AEEA-γGlu-C20 diacid])HQ[Aib]EFVNYLLEGGPSSGAPPPS-NH2
SMILES: CC[C@H](C)[C@H](NC(=O)[C@H](CO)NC(=O)[C@H](Cc1ccc(O)cc1)NC(=O)[C@H](CC(=O)O)NC(=O)[C@H](CO)NC(=O)[C@@H](NC(=O)[C@](C)(Cc1ccccc1F)NC(=O)[C@@H](NC(=O)CNC(=O)[C@H](CCC(=O)O)NC(=O)[C@H](C)NC(=O)[C@@H](Cc1ccc(O)cc1)NC(C)=O)[C@@H](C)O)[C@@H](C)CC)C(=O)N[C@@H](C)C(=O)N[C@@H](CC(C)C)C(=O)N[C@@H](CC(=O)O)C(=O)N[C@@H](CCCCN)C(=O)N[C@@H](CCCCNC(=O)COCCOCCNC(=O)COCCOCCNC(=O)CC[C@H](NC(=O)CCCCCCCCCCCCCCCCCCC(=O)O)C(=O)O)C(=O)N[C@@H](Cc1c[nH]cn1)C(=O)N[C@@H](CCC(N)=O)C(=O)NC(C)(C)C(=O)N[C@@H](CCC(=O)O)C(=O)N[C@@H](Cc1ccccc1)C(=O)N[C@H](C(=O)N[C@@H](CC(N)=O)C(=O)N[C@@H](Cc1ccc(O)cc1)C(=O)N[C@@H](CC(C)C)C(=O)N[C@@H](CC(C)C)C(=O)N[C@@H](CCC(=O)O)C(=O)NCC(=O)NCC(=O)N1CCC[C@H]1C(=O)N[C@@H](CO)C(=O)N[C@@H](CO)C(=O)NCC(=O)N[C@@H](C)C(=O)N1CCC[C@H]1C(=O)N1CCC[C@H]1C(=O)N1CCC[C@H]1C(=O)N[C@@H](CO)C(N)=O)C(C)C
B4: Example 48 (peptide)
peptide: Y[Aib]EGTFISDYSI[αMeL]LDKK([AEEA-AEEA-γGlu-C20 diacid])HQ[Aib]DFVE[4Pal]LLAGGPSSGAPPPS-NH2
modifications: N-terminus assumed
SMILES: CC[C@H](C)[C@H](NC(=O)[C@H](Cc1ccccc1)NC(=O)[C@@H](NC(=O)CNC(=O)[C@H](CCC(=O)O)NC(=O)C(C)(C)NC(=O)[C@@H](N)Cc1ccc(O)cc1)[C@@H](C)O)C(=O)N[C@@H](CO)C(=O)N[C@@H](CC(=O)O)C(=O)N[C@@H](Cc1ccc(O)cc1)C(=O)N[C@@H](CO)C(=O)N[C@H](C(=O)N[C@@](C)(CC(C)C)C(=O)N[C@@H](CC(C)C)C(=O)N[C@@H](CC(=O)O)C(=O)N[C@@H](CCCCN)C(=O)N[C@@H](CCCCNC(=O)COCCOCCNC(=O)COCCOCCNC(=O)CC[C@H](NC(=O)CCCCCCCCCCCCCCCCCCC(=O)O)C(=O)O)C(=O)N[C@@H](Cc1c[nH]cn1)C(=O)N[C@@H](CCC(N)=O)C(=O)NC(C)(C)C(=O)N[C@@H](CC(=O)O)C(=O)N[C@@H](Cc1ccccc1)C(=O)N[C@H](C(=O)N[C@@H](CCC(=O)O)C(=O)N[C@@H](Cc1ccncc1)C(=O)N[C@@H](CC(C)C)C(=O)N[C@@H](CC(C)C)C(=O)N[C@@H](C)C(=O)NCC(=O)NCC(=O)N1CCC[C@H]1C(=O)N[C@@H](CO)C(=O)N[C@@H](CO)C(=O)NCC(=O)N[C@@H](C)C(=O)N1CCC[C@H]1C(=O)N1CCC[C@H]1C(=O)N1CCC[C@H]1C(=O)N[C@@H](CO)C(N)=O)C(C)C)[C@@H](C)CC
B5: Example 44 (peptide)
peptide: Y[Aib]EGT[αMeF]ISDYSIALDKK([AEEA-AEEA-γGlu-C20 diacid])HQ[Aib]DFVE[4Pal]LLEGGPSSGAPPPS-NH2
modifications: N-terminus assumed
SMILES: CC[C@H](C)[C@H](NC(=O)[C@H](CO)NC(=O)[C@H](Cc1ccc(O)cc1)NC(=O)[C@H](CC(=O)O)NC(=O)[C@H](CO)NC(=O)[C@@H](NC(=O)[C@](C)(Cc1ccccc1)NC(=O)[C@@H](NC(=O)CNC(=O)[C@H](CCC(=O)O)NC(=O)C(C)(C)NC(=O)[C@@H](N)Cc1ccc(O)cc1)[C@@H](C)O)[C@@H](C)CC)C(=O)N[C@@H](C)C(=O)N[C@@H](CC(C)C)C(=O)N[C@@H](CC(=O)O)C(=O)N[C@@H](CCCCN)C(=O)N[C@@H](CCCCNC(=O)COCCOCCNC(=O)COCCOCCNC(=O)CC[C@H](NC(=O)CCCCCCCCCCCCCCCCCCC(=O)O)C(=O)O)C(=O)N[C@@H](Cc1c[nH]cn1)C(=O)N[C@@H](CCC(N)=O)C(=O)NC(C)(C)C(=O)N[C@@H](CC(=O)O)C(=O)N[C@@H](Cc1ccccc1)C(=O)N[C@H](C(=O)N[C@@H](CCC(=O)O)C(=O)N[C@@H](Cc1ccncc1)C(=O)N[C@@H](CC(C)C)C(=O)N[C@@H](CC(C)C)C(=O)N[C@@H](CCC(=O)O)C(=O)NCC(=O)NCC(=O)N1CCC[C@H]1C(=O)N[C@@H](CO)C(=O)N[C@@H](CO)C(=O)NCC(=O)N[C@@H](C)C(=O)N1CCC[C@H]1C(=O)N1CCC[C@H]1C(=O)N1CCC[C@H]1C(=O)N[C@@H](CO)C(N)=O)C(C)C

The binders below were run against T2, human glucagon receptor (human, UniProt P47871 26-477) (assay: SPA, displacement of [125I]-Gcg from hGcgR membranes, 0.1% bacitracin).
T2 construct: whole, on cells; Assayed as crude membranes of stably transfected HEK293 cells; also called hGcgR; GcgR
T2 sequence (P47871 26-477): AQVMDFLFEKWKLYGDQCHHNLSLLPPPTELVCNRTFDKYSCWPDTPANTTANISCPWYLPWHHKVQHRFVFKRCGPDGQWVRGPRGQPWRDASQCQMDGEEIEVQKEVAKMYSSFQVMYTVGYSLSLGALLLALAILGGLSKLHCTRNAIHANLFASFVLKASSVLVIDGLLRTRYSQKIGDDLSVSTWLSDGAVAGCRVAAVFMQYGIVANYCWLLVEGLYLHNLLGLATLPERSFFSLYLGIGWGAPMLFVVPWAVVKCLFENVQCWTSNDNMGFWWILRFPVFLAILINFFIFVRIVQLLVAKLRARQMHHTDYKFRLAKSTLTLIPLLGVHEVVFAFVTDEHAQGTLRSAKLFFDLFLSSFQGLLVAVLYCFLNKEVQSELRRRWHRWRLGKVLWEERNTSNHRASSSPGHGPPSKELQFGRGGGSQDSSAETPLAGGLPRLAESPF
In short: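 Binding buffer: 25 mM HEPES pH 7.4, 2.5 mM CaCl₂, 1 mM MgCl₂, 0.003% Tween-20, protease inhibitors without EDTA. Counted by scintillation after 12 h incubation/settling at room temperature. Four-parameter nonlinear fit; Kᵢ given as geometric mean ± SEM of independent replicates run on different days.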

| Binder | Ki [nM] |
| --- | --- |
| B1 | 23.4 |
| B2 | 407 |
| B3 | 63.5 |
| B4 | 267 |
| B5 | 50 |

Each binder was assayed against T3, human GLP-1 receptor (human, UniProt P43220 24-463) (assay: SPA, displacement of [125I]-GLP-1 from hGLP-1R membranes, 0.1% bacitracin).
T3 construct: whole, on cells; Assayed as crude membranes of stably transfected HEK293 cells; also called hGLP1R; hGLP-1R
In short: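 Binding buffer: 25 mM HEPES pH 7.4, 2.5 mM CaCl₂, 1 mM MgCl₂, 0.1% bacitracin, 0.003% Tween-20, protease inhibitors without EDTA. Four-parameter nonlinear regression; Kᵢ given as geometric mean ± SEM, n = independent replicates run on different days.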

| Binder | Ki [nM] |
| --- | --- |
| B1 | 34.9 |
| B2 | 26.5 |
| B3 | 31.2 |
| B4 | 211 |
| B5 | 209 |

What follows are binders tested against T1, human glucose-dependent insulinotropic … (assay: SPA, displacement of [125I]-GIP from hGIPR membranes, 0.1% bacitracin).

| Binder | Ki [nM] |
| --- | --- |
| B1 | 0.0501 |
| B2 | 0.037 |
| B3 | 0.0369 |
| B4 | 0.0498 |
| B5 | 0.059 |
